B1: L236V (protein)
chain: ASTKGPSVFPLAPCSRSTSESTAALGCLVKDYFPEPVTVSWNSGALTSGVHTFPAVLQSSGLYSLSSVVTVPSSSLGTKTYTCNVDHKPSNTKVDKRVAPEFLGGPSVFLFPPKPKDTLMISRTPEVTCVVVDVSQEDPEVQFNWYVDGVEVHNAKTKPREEQFNSTYRVVSVLTVLHQDWLNGKEYKCKVSNKGLPSSIEKTISKAKGQPREPQVYTLPPSQEEMTKNQVSLTCVVKGFYPSDIAVEWESNGQPENNYKTTPPVLDSDGSFFLYSRLTVDKSRWQEGNVFSCSVMHEALHNHYTQKSLSLSLGK
B2: WT (protein)
chain: ASTKGPSVFPLAPCSRSTSESTAALGCLVKDYFPEPVTVSWNSGALTSGVHTFPAVLQSSGLYSLSSVVTVPSSSLGTKTYTCNVDHKPSNTKVDKRVAPEFLGGPSVFLFPPKPKDTLMISRTPEVTCVVVDVSQEDPEVQFNWYVDGVEVHNAKTKPREEQFNSTYRVVSVLTVLHQDWLNGKEYKCKVSNKGLPSSIEKTISKAKGQPREPQVYTLPPSQEEMTKNQVSLTCLVKGFYPSDIAVEWESNGQPENNYKTTPPVLDSDGSFFLYSRLTVDKSRWQEGNVFSCSVMHEALHNHYTQKSLSLSLGK
B3: F273A (protein)
chain: ASTKGPSVFPLAPCSRSTSESTAALGCLVKDYFPEPVTVSWNSGALTSGVHTFPAVLQSSGLYSLSSVVTVPSSSLGTKTYTCNVDHKPSNTKVDKRVAPEFLGGPSVFLFPPKPKDTLMISRTPEVTCVVVDVSQEDPEVQFNWYVDGVEVHNAKTKPREEQFNSTYRVVSVLTVLHQDWLNGKEYKCKVSNKGLPSSIEKTISKAKGQPREPQVYTLPPSQEEMTKNQVSLTCLVKGFYPSDIAVEWESNGQPENNYKTTPPVLDSDGSFALYSRLTVDKSRWQEGNVFSCSVMHEALHNHYTQKSLSLSLGK
B4: Y275A (protein)
chain: ASTKGPSVFPLAPCSRSTSESTAALGCLVKDYFPEPVTVSWNSGALTSGVHTFPAVLQSSGLYSLSSVVTVPSSSLGTKTYTCNVDHKPSNTKVDKRVAPEFLGGPSVFLFPPKPKDTLMISRTPEVTCVVVDVSQEDPEVQFNWYVDGVEVHNAKTKPREEQFNSTYRVVSVLTVLHQDWLNGKEYKCKVSNKGLPSSIEKTISKAKGQPREPQVYTLPPSQEEMTKNQVSLTCLVKGFYPSDIAVEWESNGQPENNYKTTPPVLDSDGSFFLASRLTVDKSRWQEGNVFSCSVMHEALHNHYTQKSLSLSLGK

The series concerns the molecule itself. The experiment in a line: monomer to dimer conversion (% monomer vs concentration); self-association.
On to B1, for which the EC50 worked out at 2160 nM.

In the case of B2, the EC50 stood at 39 nM.

On to B3, for which the EC50 stood at 3060 nM.

In the case of B4, the EC50 is 2190 nM.
